Measured values reported in US20050064507A1, “Determining kinase specificity” (priority 2003, published 2005).

Key:
Assay type in all cases: biochemical
PKC-delta = biological target: T1, PKC-delta (Homo sapiens, UniProt Q05655); assay: In vitro kinase assay: peptide phosphorylation by PKC-delta
T1 construct: purchased Calbiochem
Method in brief: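 Biotin-Lys-dansyl-Lys-Pro-Pro-Gly-linked proteomic peptides (12–21-residue core) phosphorylated by PKC-delta in HEPES/Triton/CaCl2/MgCl2 buffer with phosphatidyl serine and PMA, 100 μM [γ-32P]ATP, 30° C., ~10 min, stoichiometry ≤5%; streptavidin-plate capture. Signal normalized as % of best peptide substrate.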

PKC-alpha = biological target: T2, PKC-alpha (Homo sapiens, UniProt P17252); assay: In vitro kinase assay: peptide phosphorylation by PKC-alpha
T2 construct: purchased Calbiochem
Method: (§1) Catalytically active preparations of the kinases of interest were either purchased or prepared. Purchased and tested active kinase preparations including the following: PKC-alpha, PKC-delta, PKC-epsilon, PKC-zeta, PKC-mu, PKA, PKG from Calbiochem, ROK alpha/ROCK-II, active from Upstate Biotechnology, and AKT1 from Panvera.
(§2) The conditions of the kinase assay and the amount of active kinase used varied with the kinase and with the accuracy needed. For a typical experiment, 5-20 ng of kinase was used per well and each peptide pool was assayed in duplicate wells. Note that the absolute amount of kinase used was not usually a critical parameter, because the desired information related to specificity of the kinase not its absolute activity, and robustness of the assay depends on comparisons of the same amount of kinase on different peptides. The combination of kinase concentration and assay duration was modified to assure that the stoichiometry of peptide phosphorylation never exceeded 5%. The choice of kinase buffer depended on the kinase being analyzed. For studies of PKC, 100 mM HEPES, 0.05% Triton-X100, 1 mM CaCl2, 20 mM MgCl2, 0.2 mg/ml phosphatidyl serine (Avanti Polar Lipids), PMA 100 ng/ml was typically used. The lipid stock was prepared by transferring 3 mg phosphatidyl serine into iced mixture of 450 μl water plus 50 μl of 10% Triton-X100, sonicating 10 times on ice for 1 sec each.
(§3) The kinase reaction mixture was assembled by sequential addition to a tube held on ice of: 5 μl peptide (100 μM for final concentration of 10 μM), 15 μl of kinase (typically 5 ng/well, in appropriate kinase buffer), 30 μl of ATP (1 uCi/well of ^32P-gamma ATP in a stock of 167 μM cold ATP in the kinase buffer; for final concentration for 100 μM ATP). The mixture was rapidly warmed to desired reaction temperature (30° C. for PKC) and incubated for the desired duration (usually 10 minutes). The kinase assay was terminated by transfer to 4° C. water batch, and rapid addition of an equal volume (50 μl) of stop solution [0.1M ATP+0.1M EDTA in water, pH 8].
(§4) The peptides were then captured from the reaction mixture by transfer to a Reacti-Bind Streptavidin High Binding Capacity Coated Plates (HBC) (Pierce Biotechnology) as follows. The HBC plates were pre-rinsed three times with PBS/Tween PBS/Tween20 0.05% (PBS/Tween). Part of all of the reaction mixture was then transferred wells of a HBC plate pre-filled with 90 μl of phosphate-buffered saline (PBS); typically each aliquots of each phosphorylation reaction were transferred to duplicate HBC plates to assure accuracy by additional replication
(§5) For kinase assays done at the standard peptide concentration of 10 μM, the peptide concentration in the reaction mixture becomes 5 μM after addition of the stop solution; consequently 10 μl of the reaction (50 pMoles of peptide) was transferred to the HBC plate. More generally, the amount of reaction mixture transferred was estimated to be about 50 pMoles of peptide. […] The HBC plates were incubated for 0.5 to 1.5 hr at room temperature for complete binding of biotinylated peptides to plate-bound streptavidin. The HBC plates were then washed extensively with PBS/Tween. Five washes were done routinely and additional wash steps were added if the wash solution removed from the plate had measurable radioactivity as detected using a Geiger counter. This step is essential to obtaining a good the signal to noise ratio because the fraction of radioactivity incorporated in the peptides was a tiny fraction of the total in the reaction mixture. The wells were air-dried. A volume of 40-50 μl of microScint-20 (Packard Instruments) was added to each well. The plates were covered with stick-on film sheet. Radioactive emissions were measured in a TopCount NXT Microplate Scintillation and Luminescence Counter (Packard Instruments). Typically samples were counted for 5 minutes (or more) to improve the signal to noise ratio when counts were low. […]

PKC-zeta = biological target: T3, PKC-zeta (Homo sapiens, UniProt Q05513); assay: In vitro kinase assay: peptide phosphorylation by PKC-zeta
T3 construct: purchased Calbiochem
T3 sequence (Q05513 1-592): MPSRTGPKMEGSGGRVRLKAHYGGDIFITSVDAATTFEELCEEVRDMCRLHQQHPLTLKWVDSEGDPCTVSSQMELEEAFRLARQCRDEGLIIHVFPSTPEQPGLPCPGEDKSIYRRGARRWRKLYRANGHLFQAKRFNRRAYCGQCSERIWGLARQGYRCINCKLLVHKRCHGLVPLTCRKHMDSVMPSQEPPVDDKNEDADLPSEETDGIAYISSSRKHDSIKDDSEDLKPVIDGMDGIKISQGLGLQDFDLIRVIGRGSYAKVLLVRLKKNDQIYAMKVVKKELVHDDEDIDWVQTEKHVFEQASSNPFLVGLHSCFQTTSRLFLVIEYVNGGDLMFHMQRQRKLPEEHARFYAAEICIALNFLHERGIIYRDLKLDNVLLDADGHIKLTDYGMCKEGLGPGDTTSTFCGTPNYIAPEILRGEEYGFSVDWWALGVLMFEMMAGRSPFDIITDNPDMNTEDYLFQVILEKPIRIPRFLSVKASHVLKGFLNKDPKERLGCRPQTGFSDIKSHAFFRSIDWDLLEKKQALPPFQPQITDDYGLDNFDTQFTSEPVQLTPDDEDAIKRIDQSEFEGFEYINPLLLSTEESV
Method: as §1, §2, §3, §4, §5

T1 sequence (Q05655 whole entry): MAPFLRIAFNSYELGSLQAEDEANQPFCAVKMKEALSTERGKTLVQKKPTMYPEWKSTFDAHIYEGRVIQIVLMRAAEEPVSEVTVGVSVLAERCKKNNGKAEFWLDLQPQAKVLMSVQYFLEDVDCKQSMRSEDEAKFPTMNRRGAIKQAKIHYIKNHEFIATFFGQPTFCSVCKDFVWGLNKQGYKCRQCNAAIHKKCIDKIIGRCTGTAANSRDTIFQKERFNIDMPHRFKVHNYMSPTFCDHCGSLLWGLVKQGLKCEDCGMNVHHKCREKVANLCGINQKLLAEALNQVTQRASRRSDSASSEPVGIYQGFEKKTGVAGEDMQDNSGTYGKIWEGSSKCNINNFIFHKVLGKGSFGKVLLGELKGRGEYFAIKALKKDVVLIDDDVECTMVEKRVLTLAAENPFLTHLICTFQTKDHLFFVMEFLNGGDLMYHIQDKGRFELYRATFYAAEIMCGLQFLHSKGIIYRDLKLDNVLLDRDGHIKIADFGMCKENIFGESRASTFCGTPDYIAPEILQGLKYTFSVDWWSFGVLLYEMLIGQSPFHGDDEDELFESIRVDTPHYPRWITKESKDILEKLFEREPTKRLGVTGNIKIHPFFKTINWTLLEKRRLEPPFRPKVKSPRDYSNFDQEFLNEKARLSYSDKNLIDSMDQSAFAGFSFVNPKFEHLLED

| Substance | phosphorylation by PKC-delta (PKC-delta; peptide concentration 1 uM) | phosphorylation by PKC-delta (PKC-delta; peptide concentration 10 uM) | phosphorylation by PKC alpha (PKC-alpha; peptide concentration 1 uM) | phosphorylation by PKC alpha (PKC-alpha; peptide concentration 10 uM) | phosphorylation by PKC zeta (PKC-zeta; peptide concentration 1 uM) | phosphorylation by PKC zeta (PKC-zeta; peptide concentration 10 uM) |
| --- | --- | --- | --- | --- | --- | --- |
| 115 (NRKKKRTSFKRKA) [compound 115] | 94 | 99 | 55 | 56 | 11 | 10 |
| 116 (EEGTFRSSIRRLSTRRR) [compound 116] | 75 | 41 | 70 | 57 | 100 | 100 |
| 117 (NRKKKRTSFKRKA) [compound 117] | 100 | 79 | 40 | 39 | 20 | 11 |
| 118 (RPQNTLKASKKKKRASFKRK) [compound 118] | 73 | 60 | 46 | 60 | 46 | 57 |
| 119 (KKRFSFKKSFKLSGFSFKKN) [compound 119] | 42 | 16 | 94 | 98 | 20 | 20 |
| 120 (AKRRRLSSLRASTSK) [compound 120] | 64 | 32 | 55 | 58 | 43 | 34 |
| 121 (LRRRSLRRSNSISKSPGP) [compound 121] | 80 | 53 | 33 | 29 | 60 | 56 |
| 122 (RAITSTLASSFKRRR) [compound 122] | 55 | 24 | 43 | 44 | 20 | 17 |
| 123 (KKRFSFKKSFKLSGFSFKKN) [compound 123] | 45 | 22 | 58 | 73 | 20 | 20 |
| 124 (PRLIRRGSKKRPAR) [compound 124] | 69 | 43 | 48 | 24 | 45 | 32 |
| 125 (PLKEKKRERKTSSKSSVRKR) [compound 125] | 46 | 36 | 34 | 31 | 13 | 12 |
| 126 (KAIKAIEGGQKFARKSTRRS) [compound 126] | 47 | 43 | 36 | 34 | 46 | 56 |
| 127 (SQVQKQRSAGSFKRNSIKKI) [compound 127] | 52 | 33 | 40 | 39 | 19 | 19 |
| 128 (QQVDRERPHVRRRRGTFKRS) [compound 128] | 46 | 57 | 25 | 33 | 14 | 9 |
| 129 (VQRHRSMRKTFARYLSFRRD) [compound 129] | 32 | 14 | 58 | 37 | 51 | 31 |
| 130 (EYLERRASRRRAV) [compound 130] | 46 | 20 | 38 | 38 | 36 | 39 |
| 131 (WKGKRRSKARKKRK) [compound 131] | 38 | 29 | 49 | 22 | 7 | 6 |
| 132 (GFLNEPLSSKSQRRKSLKLK) [compound 132] | 41 | 47 | 24 | 30 | 19 | 61 |
| 133 (LEKRGMLGKRPRRKSSRRKK) [compound 133] | 46 | 52 | 17 | 16 | 27 | 30 |
| 134 (RSRSRSRSKSKDKRKSRKRS) [compound 134] | 44 | 16 | 54 | 39 | 5 | 5 |
| 135 (KKKFRTPSFLKKSKK) [compound 135] | 40 | 25 | 56 | 19 | 11 | 13 |
| 136 (RARRDSLKKIEIW) [compound 136] | 41 | 23 | 26 | 28 | 6 | 9 |
| 137 (PSKSPSKKKKKFRTPSFLKK) [compound 137] | 38 | 16 | 34 | 38 | 4 | 5 |
